Measured values taken from US8524668 (CLEVELAND CLINIC FOUNDATION, dated 2013).
Ends that are not written are not given here. Pam2 = S-(2,3-dihydroxypropyl)-cysteine acylated by two palmitic acids (lipo-cysteine)

B1: CBLB601 (R-PAM2C-SKKKK) (peptide)
peptide: CSKKKK
modifications: N-terminal Cys is the R-Pam2 lipoamino acid (S-(2,3-dihydroxypropyl)-cysteine acylated by two palmitic acids, R stereoisomer)

Biological target: TLR2/TLR6 heterodimer
Assay: cell-based or functional assay

Row | Binder | NF-κB activation
1 | B1 | 100
2 | VQGEESNDK (not fully specified (N-terminus)) [CBLB612] | 200
3 | QGEESNDK (not fully specified (N-terminus)) [CBLB614] | 200
4 | GEESN (not fully specified (N-terminus)) [CBLB615] | 200
5 | Pam2-GQHHH [CBLB602] | 0
6 | Pam2-GQHHM [CBLB603] | 0
7 | Pam2-GSHHM [CBLB604] | 0
8 | Pam2-SQMHH [CBLB605] | 2
9 | {R‑Pam2}-GDPKHPKSF [CBLB606] | 100
10 | Pam2-GDPKHPKSFTGWVA [CBLB607] | 2
11 | Pam2-FEPPPATTTKSK [CBLB608] | 2
12 | GETDKEGKIIRIFDNSF (not fully specified (N-terminus)) [CBLB611] | 0
